Data published in US12064464B2, “Plantaricin NC8 alpha beta markedly enhances the effects of antibiotics” (priority 2018, dated 2024).

Experiments:
[1] = test system: S. epidermidis RP62A biofilms; assay: Bacterial biofilm disruption; assay type: cell-based, Staphylococcus epidermidis; conditions: 1 h
Description: S. epidermidis RP62A was inoculated into 5 ml of LB broth and incubated on a shaker at 37° C. overnight. The bacterial culture was diluted 1:100 into fresh media and 100 μl of bacterial suspension per well was added in a 96-well microtiter plate and incubated statically at 37° C. for 20 h. The wells were washed three times by submerging the plate into a container with distilled water to remove unattached cells. Fresh LB media was added to each well (100 μl) followed by addition of the peptides in different concentrations. The plate was incubated statically for 1 h. Detached material in the wells were transferred to a new microtiter plate for absorbance measurements at 620 nm. The remaining attached biofilms were stained with 0.1% crystal violet for 15 min before the plate was washed four times in distilled water as mentioned above and allowed to dry at room temperature for 2 h. The crystal violet was solubilized in 30% acetic acid for 15 min and the absorbance quantified at 550 nm. Each experiment, with three replicates, was repeated three times.

[2] = test system: HaCaT cells; assay: Scratch assay and ELISA on keratinocytes; assay type: cell-based, human; conditions: uninfected cells, 24 h
Description: Human keratinocytes (HaCaT) were cultured in Dulbecco's modified Eagle medium (DMEM, Fisher Scientific, New York, USA) supplemented with 10% FBS (FBS, Invitrogen Ltd, Paisley, UK) incubated in a stable environment at 95% air, 5% CO2 and 37° C. The cells were used at passages 1-20.
HaCaT cells were cultured overnight in a 24-well plate at a seed-count of 2×10^5 cells per well. […] Co-stimulation was performed by infection of human keratinocytes, in the presence or absence of PLNC8 αβ, for 24 h, or infection of the cells for 1 h followed by addition of different concentrations of PLNC8 αβ for 6 h. Furthermore, infection of keratinocytes, with or without PLNC8 αβ, were monitored in real-time for 72 hours using IncuCyte Live-cell Analysis System. Bacterial load was quantified by measuring the fluorescence of green fluorescent protein (GFP) and cell viability was determined by measuring the fluorescent dye Draq7 that stains nuclei of dead cells.
ELISA was performed on supernatants retrieved from human keratinocytes that were exposed to MSSA and PLNC8 αβ. The levels of CXCL8 (Human IL-8 ELISA MAX Deluxe, Nordic Biosite, Sweden) and IL-6 (Human IL-6 ELISA MAX Deluxe, Nordic Biosite, Sweden) were quantified according to the manufacturer's instructions.

[3] = test system: Porphyromonas gingivalis; conditions: references 1, 2; cited from earlier work

B1: PLNC8 αβ: two-peptide class IIb bacteriocin of L. plantarum NC8: PLNC8 α (SEQ ID NO 1) with PLNC8 β (SEQ ID NO 2) (peptide)
alpha: DLTTKLWSSWGYYLGKKARWNLKHPYVQF
beta: SVPTSVYTLGIKILWSAYKHRKTIEKSFNKGFYH
modifications: Lactobacillus plantarum NC8
disruption of biofilms [1]: efficiently disrupted the biofilms and killed the bacteria
IL-6 and CXCL8 [2]: not altered
wound healing (scratch assay) [2]: promoted wound healing in vitro
activity against Porphyromonas gingivalis [3]: efficient against the periodontal pathogen Porphyromonas gingivalis
